Data reported in US20230109208A1 (priority 2020, published 2023).
“And” between values parts separate entries of the source, which are not always exact repeats. Identical values can stand only once. Like-named read-outs stand apart in the source and are kept apart here.

Columns and labels:
COVID-19 (SARS-CoV-2) = conditions: cited from earlier work; for Mean Days to Discharge (**median): Lopinavir/Ritonavir cohort
[1] = system: severe COVID-19 pneumonia (SARS-CoV-2); conditions: for Incidence of IMV / Incidence of IMV and/or death / Incidence of death / Incidence of clinical improvement: n = 12
[2] = system: severe and critical COVID-19 pneumonia (SARS-CoV-2); conditions: for deaths / mortality: data cutoff May 1, 2020; for ALT after lenzilumab / AST after lenzilumab: individual patients: peak (patient 4) or at discharge (patients 5, 8)
human GM-CSF = human GM-CSF (Homo sapiens, UniProt P04141); test: Binding of lenzilumab to GM-CSF
[3] = system: COVID-19 associated chronic ARDS (SARS-CoV-2); assay type: in vivo, human; conditions: one patient
Experimental: Hospitalized subject with confirmed COVID-19 pneumonia and established risk factors for poor outcomes was treated in the ICU for 12 weeks using standard supportive care for chronic acute respiratory distress syndrome (ARDS). […] Patient characteristics, clinical and laboratory outcomes, and adverse events were recorded through duration of hospitalization.
Over the course of their ICU stay, the patient developed acute respiratory distress syndrome (ARDS).

[4] = Four completed clinical trials of lenzilumab (healthy volunteers, asthma, rheumatoid arthritis, CMML); assay type: in vivo, human; conditions: 113 individuals in 4 completed trials
[5] = one patient, pretreatment vs 48 hours post-lenzilumab
[6] = 12 patients (same cohort in Examples 8 and 10)
[7] = individual patient narratives, listed as lenzilumab
[8] = patient 5 at discharge, unit not given

human GM-CSF, sequence (P04141 18-144): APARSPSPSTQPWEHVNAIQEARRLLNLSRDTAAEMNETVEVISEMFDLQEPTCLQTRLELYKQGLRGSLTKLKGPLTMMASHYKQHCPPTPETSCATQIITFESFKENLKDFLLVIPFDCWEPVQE

For “Tocilizumab: anti-IL6 receptor monoclonal antibody; IL-6 antagonist”, the “Mean Days to Discharge” value (COVID-19 (SARS-CoV-2); Tocilizumab cohort) is listed as 13.5 days.

In the case of “lopinavir and ritonavir [Lopinavir/Ritonavir]”, the “Mean Days to Discharge (**median)” value (COVID-19 (SARS-CoV-2)) is listed as 13** days and the “Mean Days to Discharge (**median)” value (COVID-19 (SARS-CoV-2); listed as Lopinavir-Ritonavir) is listed as 13 days.

B1: Lenzilumab: Humaneered recombinant monoclonal antibody, derived from mouse antibody LMM102, targeting and neutralizing human GM-CSF (antibody, chains of the INN, looked up, V domains shown)
VH: QVQLVQSGAEVKKPGASVKVSCKASGYSFTNYYIHWVRQAPGQRLEWMGWINAGNGNTKYSQKFQGRVTITRDTSASTAYMELSSLRSEDTAVYYCVRRQRFPYYFDYWGQGTLVTVSS
VL: EIVLTQSPATLSVSPGERATLSCRASQSVGTNVAWYQQKPGQAPRVLIYSTSSRATGITDRFSGSGSGTDFTLTISRLEPEDFAVYYCQQFNKSPLTFGGGTKVEIK
For B1, the “patients free of ARDS (SpO2/FiO2 of 315 or higher) by end of observation” value ([1]; 11 patients, P=0.43) was 92%, the “mean SpO2/FiO2 over time post-treatment vs untreated” value ([1]; P<0.001) was “statistically significant difference” and the “CRP reduction (mean)” value ([1]; after 4 days, control −0.95, P .01) was 135.8. For the same molecule, the “IL-6 concentration on day 4” value ([1]; baseline 28.6 pg/mL, P=0.02) was 8.52 pg/mL, the “mean CRP after treatment” value ([1]; baseline 172.2 mg/L, 4 days post-treatment, P=0.04) was 36.4 mg/L and the “mean absolute neutrophil count day 4” value ([1]; baseline 5.1, P=0.27) was 4.8e+09 L⁻¹. For the same molecule, the “mean hemoglobin day 4” value ([1]; baseline 12.9, P=0.89) was 11.4 g/dL, the IL-6 reduction ([1]; baseline vs day 4) was 20.1 and the ALC increase ([1]; control 0.03, P .04) was 0.46 × 10*9/L. The Mean temperature reduction ([1]; control 0.459, P .02) was 1.075, the “PLT increase (mean platelet count from baseline)” value ([1]; control 63.2, P .61) was 52.5 and the “Ventilator-free survival vs untreated group” value ([1]; log-rank x^2=3.67, P=0.06) was “favored”. The “Incidence of IMV” value [1] was “(8%)”, the “Incidence of IMV and/or death” value [1] was “(8%)” and the Incidence of death [1] was “(8%)”. For the same molecule, the “Incidence of IMV and/or death” value ([1]; P .07) was 1 patients, the “Incidence of IMV” value ([1]; P .10) was 1 patients and the Incidence of death ([1]; P .43) was 1 patients. The “Incidence of clinical improvement” value ([1]; P .43 vs control) was 11 patients, the “Incidence of clinical improvement” value ([1]; at least 2 points on 8-point scale) was “(92%)” and the “Incidence of clinical improvement” value ([1]; at least 2 points on 8-point scale, listed as lenzilumab) was 92%. For the same molecule, the “Incidence of IMV and/or death” value ([1]; listed as lenzilumab) was 8%, the “cytokines and chemokines involved in the cytokine storm” value [1, 5] was “significant reduction” and the “Days to resolution of fever” value ([1]; range 1-6, P .22) was 2 days. For the same molecule, the “Days to clinical improvement (median)” value ([1]; range 1-14, control 11, P .006) was 5 days, the “Days to discharge from hospital (median)” value ([1]; range 3-19, control 11, P .008) was 5 days and the “Increase in mean absolute lymphocyte counts” value ([1]; untreated 0.03, P=0.04) was 4.6e+08 L⁻¹. The “hemoglobin on day 6 in one patient” value ([2]; 10.3 on day 0, renal biopsy day 2, subcapsular hematoma) was 7.9 g/dL, the “median time to discharge post-lenzilumab” value ([2]; 11 discharged patients, range 3-19) was 5 days and the “patients with clinical improvement of at least 2 points on the 8-point ordinal scale” value ([2]; 11 of 12 patients) was 92% and 91.7%. The hematological toxicity ([2]; 12 patients) was “not associated with any hematological toxicity”, the “adverse events attributable to lenzilumab” value [2, 6] was “no treatment-emergent adverse events attributable to lenzilumab” and the infusion reactions [2, 6] was “no infusion reactions”. For the same molecule, the “median time to a 2-point clinical improvement” value ([2]; 95% CI 2-7 days) was 5 days, the “time to resolution of fever in patients febrile at baseline” value ([2]; after lenzilumab administration) was no more than 48 h and the “Lymphocytes 1st Lab, summary of patients 1-5” value ([2]; average of 5 patients) was 1.044. The “Lymphocytes Last Value, summary of patients 1-5” value ([2]; average of 5 patients) was 1.422, the “Lymphocytes Low, summary of patients 1-5” value ([2]; average of 5 patients) was 0.912 and the “Neutrophils 1st Lab, unlabelled summary line of patients 1-5” value ([2]; average of 5 patients) was 3.892. For the same molecule, the “Neutrophils High, summary of patients 1-5” value ([2]; average of 5 patients) was 6.008, the “Neutrophils Last Value, summary of patients 1-5” value ([2]; average of 5 patients) was 3.98 and the “mean IL-6 on day 3” value ([2]; baseline 26.8 pg/mL, p=0.035) was 16.1 pg/mL. For the same molecule, the “mean CRP on day 3” value ([2]; baseline 137.3 mg/L, p=0.040) was 51.2 mg/L, the “mean absolute lymphocyte count day 3” value ([2]; baseline 0.89, p=0.107) was 1.14e+09 L⁻¹ and the “mean absolute neutrophil count day 3” value ([2]; baseline 5.1, p=0.27) was 4.8e+09 L⁻¹. For the same molecule, the “mean hemoglobin day 3” value ([2]; baseline 12.9, p=0.89) was 11.4 g/dL, the “mean temperature at day 3” value ([2]; baseline 37.95, p=0.023) was 36.97 and the “proportion of patients with SpO2/FiO2<315 at end of observation” value ([2]; baseline 67%, p=0.00015) was 8%. The “mean platelet count day 3” value ([2]; baseline 217.7, p=0.001) was 2.618e+11 L⁻¹, the deaths / mortality [2] was “no reported mortality” and the deaths / mortality ([2]; listed as lenzilumab) was “no deaths”. For the same molecule, the “patients discharged on home oxygen” value ([2]; five patients) was 42%, the ferritin after lenzilumab ([2]; individual patient narratives) was 571 µg/L and the CRP after lenzilumab ([2]; individual patient narratives, dates in text) was 91 mg/L and 46 mg/L. The D-dimer after lenzilumab [2, 7] was 1507 ng/mL and 1759 ng/mL and 1802 ng/mL, the ferritin after lenzilumab [2, 7] was 1143 µg/L and the “IL-6 post Rx” value ([2]; individual patients, data to Apr. 13, 2020) was 4.6 pg/mL. For the same molecule, the ALT after lenzilumab [2] was 175, the AST after lenzilumab [2] was 96 and the ALT after lenzilumab ([2]; listed as lenzilumab) was 169 and 137. The AST after lenzilumab ([2]; listed as lenzilumab) was 203 and 118, the “patients whose SpO2/FiO2 improved to >315 on day 1” value ([2]; of 8 patients <315 at baseline) was “four” and the “patients with 2-point improvement” value ([2]; of 12) was 1 patients. The “patients with ≥3-point improvement” value ([2]; of 12) was 10 patients, the “patients requiring invasive mechanical ventilation” value ([2]; one patient) was 8.3% and the “cytokines of the cytokine storm (G-CSF, MDC, GM-CSF, IL-1α, IFN-γ, IL-7, FLT-3L, IL-1rα, IL-6, IL-12p70)” value [2, 5] was “significant reduction”. It also gave an IL-6 after lenzilumab ([2]; patient 4, April 8) of 95.4 pg/mL, an LDH after lenzilumab ([2]; patient 4, April 8) of 388 U/L and an IL-6 after lenzilumab [2, 8] of 4.6. The ferritin after lenzilumab [2, 8] was 1223, the “hemoglobin at last study observation, same patient” value ([2]; patient with subcapsular hematoma) was 9.3 g/dL and the “patients requiring mechanical invasive ventilation” value ([2]; patients 1-5) was “None”. For the same molecule, the “time to clinical two-point improvement faster than comparators” value ([2]; vs Remdesivir, Lopinavir-Ritonavir (and Tocilizumab)) was “more than 50%”, the binding affinity (human GM-CSF) was “picomolar range” and the lymphopenia post lenzilumab [3] was “appeared to improve”. For the same molecule, the “infusion-related or systemic side effects” value ([3]; 600 mg IV every 8 hours, 3 doses) was “No infusion-related or systemic side effects” and the “tolerability, frequency and severity of adverse events” value [4] was “very well tolerated”.
